These sequences were tested on Escherichia coli TOP10 (assay: shrunken log2 fold change of peptide-encoding DNA abundance (4.5 h post-induction vs induction); higher = less antimicrobial activity (less host growth inhibition)). Conditions: time post-induction: 4.5 h; library: site-saturation at positions 5, 18, 19, 20.
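Also: peptides expressed intracellularly from a pBAD plasmid library in pooled LB shake-flask culture, induced with 0.3% L-arabinose, DNA abundance read by NGS, three biological replicates, DESeq2 with apeglm shrinkage.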

Row | Sequence | shrunken log2 fold change
1 | RRIRHRPPRLPRPRPRPWARPRP | -0.00568
2 | RRIRHRPPRLPRPRPRPWCAPRP | -0.145
3 | RRIRHRPPRLPRPRPRPWCFPRP | -0.688
4 | RRIRHRPPRLPRPRPRPWCGPRP | -0.181
5 | RRIRHRPPRLPRPRPRPWCKPRP | -0.111
6 | RRIRHRPPRLPRPRPRPWCVPRP | -0.386
7 | RRIRHRPPRLPRPRPRPWDFPRP | -0.0612
8 | RRIRHRPPRLPRPRPRPWDWPRP | -0.00132
9 | RRIRHRPPRLPRPRPRPWEEPRP | -0.0121
10 | RRIRHRPPRLPRPRPRPWETPRP | -0.141
11 | RRIRHRPPRLPRPRPRPWKGPRP | -0.0165
12 | RRIRHRPPRLPRPRPRPWKVPRP | -0.0338
13 | RRIRHRPPRLPRPRPRPWKYPRP | -0.253
14 | RRIRHRPPRLPRPRPRPWMFPRP | -0.119
15 | RRIRHRPPRLPRPRPRPWMGPRP | -0.205
16 | RRIRHRPPRLPRPRPRPWQIPRP | -0.453
17 | RRIRHRPPRLPRPRPRPWRIPRP | -0.0502
18 | RRIRHRPPRLPRPRPRPWSHPRP | 0.0143
19 | RRIRHRPPRLPRPRPRPWSPPRP | -0.697
20 | RRIRHRPPRLPRPRPRPWVHPRP | -0.179
21 | RRIRHRPPRLPRPRPRPWYEPRP | -1.06
22 | RRIRHRPPRLPRPRPRPWYIPRP | -0.549
23 | RRIRHRPPRLPRPRPRPYAPPRP | -0.737
24 | RRIRHRPPRLPRPRPRPYAWPRP | -0.0931
25 | RRIRHRPPRLPRPRPRPYCLPRP | -0.524

Row | Sequence | shrunken log2 fold change
26 | RRIRHRPPRLPRPRPRPYDEPRP | -0.0392
27 | RRIRHRPPRLPRPRPRPYEDPRP | -0.336
28 | RRIRHRPPRLPRPRPRPYEGPRP | -0.0203
29 | RRIRHRPPRLPRPRPRPYERPRP | -0.00674
30 | RRIRHRPPRLPRPRPRPYFSPRP | -0.129
31 | RRIRHRPPRLPRPRPRPYHDPRP | -0.135
32 | RRIRHRPPRLPRPRPRPYIHPRP | -0.322
33 | RRIRHRPPRLPRPRPRPYITPRP | -1.23
34 | RRIRHRPPRLPRPRPRPYKCPRP | -0.0105
35 | RRIRHRPPRLPRPRPRPYKKPRP | -0.0963
36 | RRIRHRPPRLPRPRPRPYKPPRP | -0.466
37 | RRIRHRPPRLPRPRPRPYLMPRP | -0.554
38 | RRIRHRPPRLPRPRPRPYLVPRP | -0.162
39 | RRIRHRPPRLPRPRPRPYMTPRP | -0.313
40 | RRIRHRPPRLPRPRPRPYNMPRP | -0.186
41 | RRIRHRPPRLPRPRPRPYPAPRP | -0.425
42 | RRIRHRPPRLPRPRPRPYPHPRP | -0.495
43 | RRIRHRPPRLPRPRPRPYSKPRP | -1.03
44 | RRIRHRPPRLPRPRPRPYTTPRP | -1.14
45 | RRIRHRPPRLPRPRPRPYWEPRP | -0.238
46 | RRIRHRPPRLPRPRPRPYWSPRP | -0.171
47 | RRIRHRPPRLPRPRPRPYYLPRP | -0.72
48 | RRIRHRPPRLPRPRPRPYYVPRP | -0.0196
49 | RRIRIRPPRLPRPRPRPADAPRP | -0.291
50 | RRIRIRPPRLPRPRPRPAEAPRP | 0.0803

Row | Sequence | shrunken log2 fold change
51 | RRIRIRPPRLPRPRPRPAENPRP | -0.0424
52 | RRIRIRPPRLPRPRPRPAEWPRP | -0.124
53 | RRIRIRPPRLPRPRPRPAFAPRP | 0.207
54 | RRIRIRPPRLPRPRPRPAGSPRP | -0.0214
55 | RRIRIRPPRLPRPRPRPAHYPRP | -0.153
56 | RRIRIRPPRLPRPRPRPAKWPRP | 0.109
57 | RRIRIRPPRLPRPRPRPALGPRP | 0.0956
58 | RRIRIRPPRLPRPRPRPALPPRP | -0.0671
59 | RRIRIRPPRLPRPRPRPAMYPRP | -0.733
60 | RRIRIRPPRLPRPRPRPAPLPRP | 0.276
61 | RRIRIRPPRLPRPRPRPAPMPRP | 0.0013
62 | RRIRIRPPRLPRPRPRPAQIPRP | 0.0984
63 | RRIRIRPPRLPRPRPRPARQPRP | -0.0037
64 | RRIRIRPPRLPRPRPRPASLPRP | -0.0288
65 | RRIRIRPPRLPRPRPRPASPPRP | -0.0763
66 | RRIRIRPPRLPRPRPRPATSPRP | -0.273
67 | RRIRIRPPRLPRPRPRPAVTPRP | -0.322
68 | RRIRIRPPRLPRPRPRPAVYPRP | -0.825
69 | RRIRIRPPRLPRPRPRPAYHPRP | -0.639
70 | RRIRIRPPRLPRPRPRPAYLPRP | -0.376
71 | RRIRIRPPRLPRPRPRPAYWPRP | -0.0439
72 | RRIRIRPPRLPRPRPRPAYYPRP | -0.401
73 | RRIRIRPPRLPRPRPRPCAMPRP | -0.424
74 | RRIRIRPPRLPRPRPRPCCCPRP | -0.641
75 | RRIRIRPPRLPRPRPRPCCFPRP | -0.725

Row | Sequence | shrunken log2 fold change
76 | RRIRIRPPRLPRPRPRPCEHPRP | -0.00165
77 | RRIRIRPPRLPRPRPRPCFEPRP | -0.626
78 | RRIRIRPPRLPRPRPRPCFIPRP | -0.503
79 | RRIRIRPPRLPRPRPRPCFVPRP | -0.422
80 | RRIRIRPPRLPRPRPRPCIWPRP | -0.278
81 | RRIRIRPPRLPRPRPRPCKFPRP | -0.549
82 | RRIRIRPPRLPRPRPRPCKNPRP | -0.299
83 | RRIRIRPPRLPRPRPRPCLPPRP | -0.425
84 | RRIRIRPPRLPRPRPRPCMMPRP | -0.654
85 | RRIRIRPPRLPRPRPRPCNPPRP | -0.123
86 | RRIRIRPPRLPRPRPRPCRAPRP | -0.284
87 | RRIRIRPPRLPRPRPRPCRCPRP | -0.319
88 | RRIRIRPPRLPRPRPRPCRIPRP | -0.0204
89 | RRIRIRPPRLPRPRPRPCTAPRP | -0.285
90 | RRIRIRPPRLPRPRPRPCVEPRP | -0.0421
91 | RRIRIRPPRLPRPRPRPCVGPRP | -0.164
92 | RRIRIRPPRLPRPRPRPCVHPRP | -1.13
93 | RRIRIRPPRLPRPRPRPCWPPRP | -0.232
94 | RRIRIRPPRLPRPRPRPCWYPRP | -0.461
95 | RRIRIRPPRLPRPRPRPDALPRP | -0.206
96 | RRIRIRPPRLPRPRPRPDCSPRP | 0.0951
97 | RRIRIRPPRLPRPRPRPDDAPRP | -0.319
98 | RRIRIRPPRLPRPRPRPDFGPRP | -0.196
99 | RRIRIRPPRLPRPRPRPDFIPRP | -0.447
100 | RRIRIRPPRLPRPRPRPDGIPRP | -0.0104

Row | Sequence | shrunken log2 fold change
101 | RRIRIRPPRLPRPRPRPDGKPRP | -0.000921
102 | RRIRIRPPRLPRPRPRPDIKPRP | -0.576
103 | RRIRIRPPRLPRPRPRPDIWPRP | -0.324
104 | RRIRIRPPRLPRPRPRPDLDPRP | -3.99e-05
105 | RRIRIRPPRLPRPRPRPDLRPRP | -0.0147
106 | RRIRIRPPRLPRPRPRPDLWPRP | 0.078
107 | RRIRIRPPRLPRPRPRPDMFPRP | -0.17
108 | RRIRIRPPRLPRPRPRPDMGPRP | -0.0742
109 | RRIRIRPPRLPRPRPRPDMMPRP | 0.0293
110 | RRIRIRPPRLPRPRPRPDNVPRP | 0.0156
111 | RRIRIRPPRLPRPRPRPDQIPRP | -0.0795
112 | RRIRIRPPRLPRPRPRPDRFPRP | 0.0544
113 | RRIRIRPPRLPRPRPRPDTHPRP | -1.12
114 | RRIRIRPPRLPRPRPRPDTNPRP | -0.73
115 | RRIRIRPPRLPRPRPRPDTSPRP | -0.283
116 | RRIRIRPPRLPRPRPRPDTVPRP | -0.301
117 | RRIRIRPPRLPRPRPRPDWKPRP | 0.036
118 | RRIRIRPPRLPRPRPRPDYQPRP | -0.611
119 | RRIRIRPPRLPRPRPRPDYSPRP | -1.21
120 | RRIRIRPPRLPRPRPRPEADPRP | 0.196
121 | RRIRIRPPRLPRPRPRPEAFPRP | 0.0813
122 | RRIRIRPPRLPRPRPRPEDCPRP | 0.00952
123 | RRIRIRPPRLPRPRPRPEDEPRP | 0.0112
124 | RRIRIRPPRLPRPRPRPEDFPRP | 0.00408
125 | RRIRIRPPRLPRPRPRPEDSPRP | -0.0125

Row | Sequence | shrunken log2 fold change
126 | RRIRIRPPRLPRPRPRPEFPPRP | -0.0115
127 | RRIRIRPPRLPRPRPRPEGGPRP | 0.155
128 | RRIRIRPPRLPRPRPRPEHKPRP | -0.199
129 | RRIRIRPPRLPRPRPRPEHNPRP | -0.505
130 | RRIRIRPPRLPRPRPRPEIGPRP | -0.0838
131 | RRIRIRPPRLPRPRPRPEINPRP | -0.993
132 | RRIRIRPPRLPRPRPRPEKGPRP | -0.257
133 | RRIRIRPPRLPRPRPRPEKKPRP | -0.0556
134 | RRIRIRPPRLPRPRPRPEKNPRP | -0.232
135 | RRIRIRPPRLPRPRPRPELHPRP | -0.2
136 | RRIRIRPPRLPRPRPRPEMGPRP | -0.105
137 | RRIRIRPPRLPRPRPRPEMSPRP | -0.0264
138 | RRIRIRPPRLPRPRPRPENCPRP | -0.00941
139 | RRIRIRPPRLPRPRPRPEPPPRP | 0.254
140 | RRIRIRPPRLPRPRPRPEVQPRP | -0.022
141 | RRIRIRPPRLPRPRPRPEWRPRP | 0.257
142 | RRIRIRPPRLPRPRPRPFCSPRP | -0.426
143 | RRIRIRPPRLPRPRPRPFCWPRP | -0.0029
144 | RRIRIRPPRLPRPRPRPFDQPRP | -0.385
145 | RRIRIRPPRLPRPRPRPFEKPRP | -0.103
146 | RRIRIRPPRLPRPRPRPFESPRP | -0.218
147 | RRIRIRPPRLPRPRPRPFEVPRP | -0.162
148 | RRIRIRPPRLPRPRPRPFGWPRP | 0.468
149 | RRIRIRPPRLPRPRPRPFIGPRP | -0.227
150 | RRIRIRPPRLPRPRPRPFINPRP | -0.365
